According to patent EP2138508A1 (Helmholtz-Zentrum für Infektionsforschung GmbH, dated 2009):

How the values were obtained:
[1] = biological target: Met receptor on MK keratinocytes (mouse, UniProt P16056 25-1379); assay: cell-based or functional assay
[2] = biological target: Met receptor on MDCK cells (UniProt Q75ZY9 25-1382); assay: cell-based or functional assay

B1: InIB321_Crys (InIB321 G206C A227C C242A, "crystal dimer") (ligand)
chain: ETITVPTPIKQIFSDDAFAETIKDNLKKKSVTDAVTQNELNSIDQIIANNSDIKSVQGIQYLPNVTKLFLNGNKLTDIKPLANLKNLGWLFLDENKVKDLSSLKDLKKLKSLSLEHNGISDINGLVHLPQLESLYLGNNKITDITVLSRLTKLDTLSLEDNQISDIVPLACLTKLQNLYLSKNHISDLRALCGLKNLDVLELFSQEALNKPINHQSNLVVPNTVKNTDGSLVTPEIISDDGDYEKPNVKWHLPEFTNEVSFIFYQPVTIGKAKARFHGRVTQPLKE
modifications: two intermolecular disulfides: Cys 206 of chain A with Cys 227 of chain B and vice versa
stimulation of DNA synthesis in MK keratinocytes, activity relative to full-length InIB [1]: ~10 fold
cell scattering of MDCK cells, potency relative to HGF and InIBfl [2]: ~2 orders of magnitude
